Data published in paper PMC9814759, “Enzymatic kinetic resolution of desmethylphosphinothricin indicates that phosphinic group is a bioisostere of carboxyl group” (Communications Chemistry, 2020).

Experiments:
purified protein [1] = substrate: N[C@@H](CCC(=O)O)C(=O)O; assay: purified protein; format: biochemical, Escherichia coli; conditions: 0.1 M Pyridine/HCl, pH 4.6, 0.1 mM DTT, 40 µM PLP, discontinuous assay
purified protein [2] = substrate: N[C@@H](CC[PH](=O)O)C(=O)O; assay: purified protein; format: biochemical, Escherichia coli; conditions: 0.1 M Pyridine/HCl, pH 4.6, 0.1 mM DTT, 40 µM PLP, discontinuous assay

B1: EcGadB (Escherichia coli K-12) (protein)
chain: MDKKQVTDLRSELLDSRFGAKSISTIAESKRFPLHEMRDDVAFQIINDELYLDGNARQNLATFCQTWDDENVHKLMDLSINKNWIDKEEYPQSAAIDLRCVNMVADLWHAPAPKNGQAVGTNTIGSSEACMLGGMAMKWRWRKRMEAAGKPTDKPNLVCGPVQICWHKFARYWDVELREIPMRPGQLFMDPKRMIEACDENTIGVVPTFGVTYTGNYEFPQPLHDALDKFQADTGIDIDMHIDAASGGFLAPFVAPDIVWDFRLPRVKSISASGHKFGLAPLGCGWVIWRDEEALPQELVFNVDYLGGQIGTFAINFSRPAGQVIAQYYEFLRLGREGYTKVQNASYQVAAYLADEIAKLGPYEFICTGRPDEGIPAVCFKLKDGEDPGYTLYDLSERLRLRGWQVPAFTLGGEATDIVVMRIMCRRGFEMDFAELLLEDYKASLKYLSDHPKLQGIAQQNSFKHT
notes: expressed and purified EcGadB (DEAE chromatography); no tag stated; PLP-dependent homohexamer; EC 4.1.1.15
Km (purified protein [1]): 0.84 ± 0.09 mM | kcat (purified protein [1]): 78.2 ± 2.06 s⁻¹ | kcat/Km (purified protein [1]): 92800 ± 10300 M⁻¹ s⁻¹ | Km (purified protein [2]): 39.82 ± 5.66 mM | kcat (purified protein [2]): 13.9 ± 0.58 s⁻¹ | kcat/Km (purified protein [2]): 350 ± 50 M⁻¹ s⁻¹
